Positions count from the first letter of the chain named. Names may count otherwise.
Tests used:
Human CD137 ECD (human) = experiment: Biacore SPR, vs parent H183/L072
[1] = molecular target: Human CD3eg linker (human); experiment: SPR; fold vs parent H183/L072
Sequence of Human CD3eg linker (human) (chain, as listed by the source limits assumed): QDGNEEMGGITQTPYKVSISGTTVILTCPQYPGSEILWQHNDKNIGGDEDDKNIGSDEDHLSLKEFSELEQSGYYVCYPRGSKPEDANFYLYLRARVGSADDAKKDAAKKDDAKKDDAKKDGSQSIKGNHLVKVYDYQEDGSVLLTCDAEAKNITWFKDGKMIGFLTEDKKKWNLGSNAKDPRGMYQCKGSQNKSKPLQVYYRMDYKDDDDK

Sequence of Human CD137 ECD (human) (chain, as listed by the source limits assumed): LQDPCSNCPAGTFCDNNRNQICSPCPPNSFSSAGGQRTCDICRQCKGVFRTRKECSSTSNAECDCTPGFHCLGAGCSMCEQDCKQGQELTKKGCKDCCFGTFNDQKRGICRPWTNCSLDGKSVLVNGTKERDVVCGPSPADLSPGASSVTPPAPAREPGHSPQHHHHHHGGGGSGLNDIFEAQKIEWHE

B1: H183/L072 VL T31G (antibody, name in Kabat numbering, V domains shown)
VH: QVQLVESGGGLVQPGRSLRLSCAASGFTFSNAWMHWVRQAPGKGLEWVAQIKDKGNAYAAYYAPSVKGRFTISRDDSKNSIYLQMNSLKTEDTAVYYCHYVHYASASTVLPAFGVDAWGQGTTVTVSS
VL: DIVMTQSPLSLPVTPGEPASISCQASQELVHMNRNGYLHWYQQKPGQAPRLLIYKVSNRFPGVPDRFSGSGSGTDFTLKISRVEAEDVGVYYCAQGTSVPFTFGQGTKLEIK
Human CD137 ECD (human)
  fold change of affinity: 0 fold

B2: H183/L072 VL H34Q (antibody, name in Kabat numbering, V domains shown)
VH: B1 VH
VL: B1 VL with G36T, H39Q
Human CD137 ECD (human)
  fold change of affinity: 0 fold

B3: H183/L072 VL Q90W (antibody, name in Kabat numbering, V domains shown)
VH: B1 VH
VL: B1 VL with G36T, Q95W
[1]
  fold change of affinity: 0 fold

B4: H183/L072 VL K50W (antibody, name in Kabat numbering, V domains shown)
VH: B1 VH
VL: B1 VL with G36T, K55W
[1]
  fold change of affinity: 0 fold

B5: H183/L072 VL L33K (antibody, name in Kabat numbering, V domains shown)
VH: B1 VH
VL: B1 VL with G36T, L38K
Human CD137 ECD (human)
  fold change of affinity: 0 fold

B6: H183/L072 VL Y32E (antibody, name in Kabat numbering, V domains shown)
VH: B1 VH
VL: B1 VL with G36T, Y37E
Human CD137 ECD (human)
  fold change of affinity: 0 fold

B7: H183/L072 VL P95F (antibody, name in Kabat numbering, V domains shown)
VH: B1 VH
VL: B1 VL with G36T, P100F
[1]
  fold change of affinity: 0 fold

B8: H183/L072 VL F96N (antibody, name in Kabat numbering, V domains shown)
VH: B1 VH
VL: B1 VL with G36T, F101N
[1]
  fold change of affinity: 0 fold

B9: H183/L072 VL T31H (antibody, name in Kabat numbering, V domains shown)
VH: B1 VH
VL: B1 VL with G36H
Human CD137 ECD (human)
  fold change of affinity: 0 fold

B10: H183/L072 VL F96W (antibody, name in Kabat numbering, V domains shown)
VH: B1 VH
VL: B1 VL with G36T, F101W
[1]
  fold change of affinity: 0 fold

B11: H183/L072 VL F96R (antibody, name in Kabat numbering, V domains shown)
VH: B1 VH
VL: B1 VL with G36T, F101R
[1]
  fold change of affinity: 0 fold

B12: H183/L072 VL H34K (antibody, name in Kabat numbering, V domains shown)
VH: B1 VH
VL: B1 VL with G36T, H39K
Human CD137 ECD (human)
  fold change of affinity: 0 fold

B13: H183/L072 VL A25H (antibody, name in Kabat numbering, V domains shown)
VH: B1 VH
VL: B1 VL with A25H, G36T
Human CD137 ECD (human)
  fold change of affinity: 0 fold

B14: H183/L072 VL Y32K (antibody, name in Kabat numbering, V domains shown)
VH: B1 VH
VL: B1 VL with G36T, Y37K
Human CD137 ECD (human)
  fold change of affinity: 0 fold

B15: H183/L072 VL A25K (antibody, name in Kabat numbering, V domains shown)
VH: B1 VH
VL: B1 VL with A25K, G36T
Human CD137 ECD (human)
  fold change of affinity: 0 fold

B16: H183/L072 VL H34G (antibody, name in Kabat numbering, V domains shown)
VH: B1 VH
VL: B1 VL with G36T, H39G
Human CD137 ECD (human)
  fold change of affinity: 0 fold

B17: H183/L072 VL G91R (antibody, name in Kabat numbering, V domains shown)
VH: B1 VH
VL: B1 VL with G36T, G96R
[1]
  fold change of affinity: 0 fold

B18: H183/L072 VL T31N (antibody, name in Kabat numbering, V domains shown)
VH: B1 VH
VL: B1 VL with G36N
Human CD137 ECD (human)
  fold change of affinity: 0 fold

B19: H183/L072 VL T92W (antibody, name in Kabat numbering, V domains shown)
VH: B1 VH
VL: B1 VL with G36T, T97W
[1]
  fold change of affinity: 0 fold

B20: H183/L072 VL Y32S (antibody, name in Kabat numbering, V domains shown)
VH: B1 VH
VL: B1 VL with G36T, Y37S
Human CD137 ECD (human)
  fold change of affinity: 0 fold

B21: H183/L072 VL K50F (antibody, name in Kabat numbering, V domains shown)
VH: B1 VH
VL: B1 VL with G36T, K55F
[1]
  fold change of affinity: 0 fold

B22: H183/L072 VL V94W (antibody, name in Kabat numbering, V domains shown)
VH: B1 VH
VL: B1 VL with G36T, V99W
[1]
  fold change of affinity: 0 fold

B23: H183/L072 VL N28D (antibody, name in Kabat numbering, V domains shown)
VH: B1 VH
VL: B1 VL with N33D, G36T
Human CD137 ECD (human)
  fold change of affinity: 0 fold

B24: H183/L072 VL H34S (antibody, name in Kabat numbering, V domains shown)
VH: B1 VH
VL: B1 VL with G36T, H39S
Human CD137 ECD (human)
  fold change of affinity: 0 fold

B25: H183/L072 VL H34E (antibody, name in Kabat numbering, V domains shown)
VH: B1 VH
VL: B1 VL with G36T, H39E
Human CD137 ECD (human)
  fold change of affinity: 0 fold

B26: H183/L072 VL H34T (antibody, name in Kabat numbering, V domains shown)
VH: B1 VH
VL: B1 VL with G36T, H39T
Human CD137 ECD (human)
  fold change of affinity: 0 fold

B27: H183/L072 VL Q24E (antibody, name in Kabat numbering, V domains shown)
VH: B1 VH
VL: B1 VL with Q24E, G36T
Human CD137 ECD (human)
  fold change of affinity: 0 fold

B28: H183/L072 VL L33S (antibody, name in Kabat numbering, V domains shown)
VH: B1 VH
VL: B1 VL with G36T, L38S
Human CD137 ECD (human)
  fold change of affinity: 0 fold

B29: H183/L072 VL Y32T (antibody, name in Kabat numbering, V domains shown)
VH: B1 VH
VL: B1 VL with G36T, Y37T
Human CD137 ECD (human)
  fold change of affinity: 0 fold

B30: H183/L072 VL G91F (antibody, name in Kabat numbering, V domains shown)
VH: B1 VH
VL: B1 VL with G36T, G96F
[1]
  fold change of affinity: 0 fold

B31: H183/L072 VL A25D (antibody, name in Kabat numbering, V domains shown)
VH: B1 VH
VL: B1 VL with A25D, G36T
Human CD137 ECD (human)
  fold change of affinity: 0 fold

B32: H183/L072 VL V51W (antibody, name in Kabat numbering, V domains shown)
VH: B1 VH
VL: B1 VL with G36T, V56W
[1]
  fold change of affinity: 0 fold

B33: H183/L072 VL A89R (antibody, name in Kabat numbering, V domains shown)
VH: B1 VH
VL: B1 VL with G36T, A94R
[1]
  fold change of affinity: 0 fold

B34: H183/L072 VL G91W (antibody, name in Kabat numbering, V domains shown)
VH: B1 VH
VL: B1 VL with G36T, G96W
[1]
  fold change of affinity: 0 fold

B35: H183/L072 VL T97W (antibody, name in Kabat numbering, V domains shown)
VH: B1 VH
VL: B1 VL with G36T, T102W
[1]
  fold change of affinity: 0 fold

B36: H183/L072 VL Q90F (antibody, name in Kabat numbering, V domains shown)
VH: B1 VH
VL: B1 VL with G36T, Q95F
[1]
  fold change of affinity: 0 fold

B37: H183/L072 VL H34N (antibody, name in Kabat numbering, V domains shown)
VH: B1 VH
VL: B1 VL with G36T, H39N
Human CD137 ECD (human)
  fold change of affinity: 0 fold

B38: H183/L072 VL L27bN (antibody, name in Kabat numbering, V domains shown)
VH: B1 VH
VL: B1 VL with L29N, G36T
Human CD137 ECD (human)
  fold change of affinity: 0 fold

B39: H183/L072 VL Q90R (antibody, name in Kabat numbering, V domains shown)
VH: B1 VH
VL: B1 VL with G36T, Q95R
[1]
  fold change of affinity: 0 fold

B40: H183/L072 VL Y32D (antibody, name in Kabat numbering, V domains shown)
VH: B1 VH
VL: B1 VL with G36T, Y37D
Human CD137 ECD (human)
  fold change of affinity: 0 fold

B41: H183/L072 VL L33D (antibody, name in Kabat numbering, V domains shown)
VH: B1 VH
VL: B1 VL with G36T, L38D
Human CD137 ECD (human)
  fold change of affinity: 0 fold

B42: H183/L072 VL H34D (antibody, name in Kabat numbering, V domains shown)
VH: B1 VH
VL: B1 VL with G36T, H39D
Human CD137 ECD (human)
  fold change of affinity: 0 fold

B43: H183/L072 VL P95R (antibody, name in Kabat numbering, V domains shown)
VH: B1 VH
VL: B1 VL with G36T, P100R
[1]
  fold change of affinity: 0 fold

B44: H183/L072 VL K50Q (antibody, name in Kabat numbering, V domains shown)
VH: B1 VH
VL: B1 VL with G36T, K55Q
[1]
  fold change of affinity: 0 fold

B45: H183/L072 VL P95W (antibody, name in Kabat numbering, V domains shown)
VH: B1 VH
VL: B1 VL with G36T, P100W
[1]
  fold change of affinity: 0 fold

B46: H183/L072 VL V51F (antibody, name in Kabat numbering, V domains shown)
VH: B1 VH
VL: B1 VL with G36T, V56F
[1]
  fold change of affinity: 0 fold

B47: H183/L072 VL A25E (antibody, name in Kabat numbering, V domains shown)
VH: B1 VH
VL: B1 VL with A25E, G36T
Human CD137 ECD (human)
  fold change of affinity: 0 fold
